Assay [1] has as its target CD3 on the cell surface of Jurkat E6.1 cells (UniProt P07766). The assay can be described thus: flow cytometry on Jurkat E6.1 cells, 0.32 nM antibody, anti-IgG1-PE; negative control. On the technique in general: In flow cytometry, cells or beads pass a laser one at a time.
Assay [2] has the same target. The assay can be described thus: flow cytometry on Jurkat E6.1 cells, 100 nM antibody, anti-IgG1-PE; negative control.
Assay [3] has the same target. Description: flow cytometry on Jurkat E6.1 cells, 31.6 nM antibody, anti-IgG1-PE; negative control.
For assay [4] the target is unchanged. Description: flow cytometry on Jurkat E6.1 cells, 316 nM antibody, anti-IgG1-PE; negative control.
Assay [5] has the same target. Description: flow cytometry on Jurkat E6.1 cells, 1000 nM antibody, anti-IgG1-PE; negative control.
Assay [6] has the same target. The assay can be described thus: flow cytometry on Jurkat E6.1 cells, 1 nM antibody, anti-IgG1-PE; negative control.
Assay [7] has the same target. Description: flow cytometry on Jurkat E6.1 cells, 3.16 nM antibody, anti-IgG1-PE; negative control.
Assay [8] shares this target. Description: flow cytometry on Jurkat E6.1 cells, 10 nM antibody, anti-IgG1-PE; negative control.
Another assay concerns the target FcRn receptor. The assay can be described thus: SPR (Biacore T200), FcRn on CM5 chip, steady state analysis, pH 6.0; pH 6.0. For orientation: Surface plasmon resonance follows binding to a sensor surface in real time, without labels.

Sequence of CD3 on the cell surface of Jurkat E6.1 cells (P07766 23-207): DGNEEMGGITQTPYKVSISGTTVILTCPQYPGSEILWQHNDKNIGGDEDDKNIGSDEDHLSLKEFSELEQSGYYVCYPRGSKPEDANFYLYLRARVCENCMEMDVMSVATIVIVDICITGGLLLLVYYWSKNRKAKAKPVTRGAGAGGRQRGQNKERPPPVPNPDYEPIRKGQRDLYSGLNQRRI
Sequence of FcRn receptor (P55899 24-297, chain 1 of 2): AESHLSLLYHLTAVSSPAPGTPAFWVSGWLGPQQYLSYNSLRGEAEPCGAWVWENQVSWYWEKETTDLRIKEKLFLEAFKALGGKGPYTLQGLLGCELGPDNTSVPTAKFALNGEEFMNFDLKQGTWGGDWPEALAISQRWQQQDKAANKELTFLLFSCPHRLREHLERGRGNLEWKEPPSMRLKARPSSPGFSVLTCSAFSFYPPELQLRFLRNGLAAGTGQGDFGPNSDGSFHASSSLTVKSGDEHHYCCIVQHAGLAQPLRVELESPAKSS
Sequence of FcRn receptor (P61769 21-119, chain 2 of 2, further chain): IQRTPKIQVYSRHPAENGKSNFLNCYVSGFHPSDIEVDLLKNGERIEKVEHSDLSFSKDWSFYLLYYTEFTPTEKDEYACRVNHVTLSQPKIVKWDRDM

Rituximab (antibody): the median fluorescence intensity in [1] was found to be 58.3; in assay [2], 55.5; in assay [3], 58.7; in assay [4] it was 55; in assay [5] it was 66.4; in assay [6] it was 56.5. The median fluorescence intensity is 55.4 in assay [7] and 60.8 in assay [8].
Irrelevant IgG1 WT (antibody) displayed a Kd in the assay with FcRn receptor of 1740 nM.

For orientation: Kd means the equilibrium constant for the complex coming apart. The low end stands for higher affinity, the high end for lower affinity.

(Values after patent publication US20230190951A1, “CONJUGATES OF ANTIBODIES AN IMMUNE CELL ENGAGERS” (SYNAFFIX B.V., priority 2020, published 2023).)
